Tested on: MS2 coat protein
Experiment: apparent KD of MS2 coat protein; designed switch direction (-1 OFF switch, 1 ON switch): -1; higher = weaker reporter binding
Outline: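 Transcription of designed RNA switches on Illumina chips was done by stalled E. coli RNA polymerase. SNAP-549-labelled MS2 coat protein was then titrated in doubling steps from 0.7 or 1.5 nM to 3 µM, with steps of 0.8–1.5 h at the lowest and 10–20 min at the highest concentration. The per-design median over clusters of curve-fitted normalised fluorescence is reported as apparent KD.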

[1] = input ligand: microRNA oligo, concentration not stated
[2] = Eterna round: R95, input ligand: FMN 200 uM
[3] = Eterna round: R95, input ligand: microRNA oligo, concentration not stated
[4] = Eterna round: R95, input ligand: none

Sequence: AACAGUACAGGAUAUACAUGAGGAUCACCCAUGUGACAAUUAAGUGGCGUACCACAAAGUAGAAGGGUACUGGA [Ruby 86] (Eterna round: R96, puzzle: Exclusion 3)
- apparent KD of MS2 coat protein (input ligand: FMN 200 uM): 206 nM
- apparent KD of MS2 coat protein [1]: 24.3 nM
- apparent KD of MS2 coat protein (input ligand: none): 31 nM

Sequence: AACAGUCUGGAGGAUAUGCUGGAUUAAAAUCUGGCAGAAGGCUGGACAUGAGGAUCACCCAUGUAAAUACUACC [Omei Ex6 A2a] (Eterna round: R97, puzzle: Exclusion 6)
- apparent KD of MS2 coat protein (input ligand: FMN 200 uM): 73.1 nM
- apparent KD of MS2 coat protein (input ligand: none): 24.8 nM

Sequence: AACAUGAGGAUCACCCAUGUAAUGGACAGAUCACCGACCACGCAGGAUAUUAGGCCUCAAAUUCUUAAGAAGGGCGAGGAUGUG [Eternabot solution 49] (Eterna round: R96, puzzle: Exclusion NG 3)
- apparent KD of MS2 coat protein (input ligand: FMN 200 uM): 50.3 nM
- apparent KD of MS2 coat protein [1]: 52 nM
- apparent KD of MS2 coat protein (input ligand: none): 66.9 nM

Sequence: AACCGUCGUCAGGAUAUUUGCCAGGAUUCUAGCGAAGAAGGGACGACAUGAGGAUCACCCAUGUUGGCCACUCG [EX6 B.26] (Eterna round: R97, puzzle: Exclusion 6)
- apparent KD of MS2 coat protein (input ligand: FMN 200 uM): 188 nM
- apparent KD of MS2 coat protein (input ligand: none): 36.9 nM

Sequence: AACCUACAUGAGGAUCACCCAUGUGAGGAUAUAUUGGUAUUUAUAUUAUUUUUUAGAGGUAGAAGGCGCGUGAU [JR_Exc1_Sub021] (Eterna round: R97, puzzle: Exclusion 1)
- apparent KD of MS2 coat protein (input ligand: FMN 200 uM): 14.2 nM
- apparent KD of MS2 coat protein (input ligand: none): 14.2 nM

Sequence: AACCUGAGGCAUAGCUUUAGGUUUACAUGAGGAUCACCCAUGUAGGAUAUGGUAGGCAUAGCUUACCAGAAGGACAUGAAAAUU [Mat - Exclusion NG 3 - Mod of JL - D30] (Eterna round: R96, puzzle: Exclusion NG 3)
- apparent KD of MS2 coat protein (input ligand: FMN 200 uM): 417 nM
- apparent KD of MS2 coat protein [1]: 47.9 nM
- apparent KD of MS2 coat protein (input ligand: none): 55.6 nM

Sequence: AACCUGAGGCUUUGCUUUAGGUGUACAUGAGGAUCACCCAUGUAGGAUAUGGUAGGCAAAGCUUACCAGAAGGACAUUUAGGUU [Mat - Exclusion NG 3 - Mod of JL - D43] (Eterna round: R96, puzzle: Exclusion NG 3)
- apparent KD of MS2 coat protein (input ligand: FMN 200 uM): 72.8 nM
- apparent KD of MS2 coat protein [1]: 34.3 nM
- apparent KD of MS2 coat protein (input ligand: none): 41.4 nM

Sequence: AACCUGAGGCUUUGCUUUAGGUGUACAUGAGGAUCACCCAUGUAGGAUAUGGUAGGCUUUGCUUACCAGAAGGACAUUGGCGUU [JL ENG3 1.14] (Eterna round: R96, puzzle: Exclusion NG 3)
- apparent KD of MS2 coat protein (input ligand: FMN 200 uM): 388 nM
- apparent KD of MS2 coat protein [1]: 66.2 nM
- apparent KD of MS2 coat protein (input ligand: none): 97.3 nM

Sequence: AACGAUACGCUCAUAAGAACAUGAGGAUCACCCAUGUGUGGUGAGGAUAUCCACCCAGAGGGAAAGGAGAAGGUACCAGUGGAC [Orsoenbere] (Eterna round: R96, puzzle: Exclusion NG 3)
- apparent KD of MS2 coat protein (input ligand: FMN 200 uM): 222 nM
- apparent KD of MS2 coat protein [1]: 143 nM
- apparent KD of MS2 coat protein (input ligand: none): 303 nM

Sequence: AAGAAACAUGAGGAUCACCCAUGUGAGGAUAUGAAAAAGAAAAGAAAAGAAAGAAGAUUCAGAAGGCACAAAGG [salish99-ex1_r3_021] (puzzle: Exclusion 1)
- apparent KD of MS2 coat protein [2]: 60.7 nM
- apparent KD of MS2 coat protein [3]: 31.9 nM
- apparent KD of MS2 coat protein [4]: 33.9 nM

Sequence: AAGAAACAUGAGGAUCACCCAUGUGAGGAUAUGAACCGCCCGGCGUAAGCAAAAUAAAUCAGAAGGCACAAAGG [salish99_ex1_r4_006] (Eterna round: R97, puzzle: Exclusion 1)
- apparent KD of MS2 coat protein (input ligand: FMN 200 uM): 38.3 nM
- apparent KD of MS2 coat protein (input ligand: none): 32.2 nM

Sequence: AAGAAACAUGAGGAUCACCCAUGUGAGGAUAUGACAAAGAAAAGAAAAGAAAGAAGAAUCAGAAGGCACAAAGG [salish99-ex1_r3_033] (puzzle: Exclusion 1)
- apparent KD of MS2 coat protein [2]: 121 nM
- apparent KD of MS2 coat protein [3]: 83.1 nM
- apparent KD of MS2 coat protein [4]: 96.6 nM

Sequence: AAGAAACAUGAGGAUCACCCAUGUGAGGAUAUGAGGAAGAAAAGAAAAGAAAGAAGAUUCAGAAGGCACAAAGG [salish99-ex1_r3_058] (puzzle: Exclusion 1)
- apparent KD of MS2 coat protein [2]: 96.3 nM
- apparent KD of MS2 coat protein [3]: 35.1 nM
- apparent KD of MS2 coat protein [4]: 59.1 nM

Sequence: AAGAAACAUGAGGAUCACCCAUGUGAGGAUAUGUAAAAUAAAAGAAAAGAAAGAAGAAACAGAAGGCACAAAGG [Mat - Mod of Hog D13] (puzzle: Exclusion 1)
- apparent KD of MS2 coat protein [2]: 47.3 nM
- apparent KD of MS2 coat protein [3]: 35.4 nM
- apparent KD of MS2 coat protein [4]: 47.5 nM

Sequence: AAGAAGUGAGGAUAUGGCCGGGUCCCUGGGUUUGGACCCGGCCAGAAGGCACAUGAGGAUCACCCAUGUAAGAA [Excls4-X] (puzzle: Exclusion 4)
- apparent KD of MS2 coat protein [3]: 21.1 nM

Sequence: AAGAAUUUAUAGGAUAUCGAAAGUAUAAUUUAACGAGAAGGAUGAACAUGAGGAUCACCCAUGUGGUAUCAUGG [JL-ex6-3.09] (puzzle: Exclusion 6)
- apparent KD of MS2 coat protein [2]: 145 nM
- apparent KD of MS2 coat protein [3]: 232 nM
- apparent KD of MS2 coat protein [4]: 304 nM

Sequence: AAGAAUUUGCAGGAUAUCUACCACGAUAGGGAUAGAGAAGGGUAAACAUGAGGAUCACCCAUGUAGUAGGUCCG [Eternabot (L2) Solution 91] (Eterna round: R97, puzzle: Exclusion 6)
- apparent KD of MS2 coat protein (input ligand: FMN 200 uM): 61.3 nM
- apparent KD of MS2 coat protein (input ligand: none): 115 nM

Sequence: AAGACUCGCAAUAAGAACAAGCACUCCGAACUAUAAGUAACAUGAGGAUCACCCAUGUCAAGGGUGCCAAAGUCAAA [JR_Sensorv2_tov2_Sub302] (Eterna round: R96, puzzle: Sensor v2, turn-off variant 2)
- apparent KD of MS2 coat protein (input ligand: FMN 200 uM): 15.4 nM
- apparent KD of MS2 coat protein [1]: 16 nM
- apparent KD of MS2 coat protein (input ligand: none): 18.6 nM

Sequence: AAGAGUGCAGGAUAUACUUGGUAGGGCGGGUGGAUGAAGUGACAUGAGGAUCACCCAUGUAGAAGGGCAGAGAG [JR_Exclu2_Sub055] (puzzle: Exclusion 2)
- apparent KD of MS2 coat protein [2]: 24.6 nM
- apparent KD of MS2 coat protein [3]: 21.4 nM
- apparent KD of MS2 coat protein [4]: 25.7 nM

Sequence: AAGAUGCGGGUAGGAUAUGGAGAGAAAGAAAGACCAGAAGGAUUGGUCACACAACAUGAGGAUCACCCAUGUGUGUGUUGCGAA [EX ng 1 6.1] (Eterna round: R96, puzzle: Exclusion NG 1)
- apparent KD of MS2 coat protein [1]: 9.22 nM

Sequence: AAGCAACAUGAGGAUCACCCAUGUGAGGAUAUACGCAUGCAUGCAUGCAUGCAUGCAAGUAGAAGGCACAAUAC [Design #16] (Eterna round: R97, puzzle: Exclusion 1)
- apparent KD of MS2 coat protein (input ligand: FMN 200 uM): 69.8 nM
- apparent KD of MS2 coat protein (input ligand: none): 35.3 nM

Sequence: AAGGACCGUGUAGGAUAUGCACUGAAUAGGUCAGGAGGGUUCUUACACAUGAGGAUCACCCAUGUGUAGAAGGACGGAAGGUCA [Eternabot solution 25] (Eterna round: R96, puzzle: Exclusion NG 2)
- apparent KD of MS2 coat protein (input ligand: FMN 200 uM): 12.7 nM
- apparent KD of MS2 coat protein [1]: 11.4 nM
- apparent KD of MS2 coat protein (input ligand: none): 15.2 nM

Sequence: AAGGCGGUAGGAUAUACAUGAGGAUCACCCAUGUGUCGCAUAAUCACAGCAGUACUCUGUAGAAGGACCGUCAG [Eternabot (L2) Solution 100] (Eterna round: R97, puzzle: Exclusion 3)
- apparent KD of MS2 coat protein (input ligand: FMN 200 uM): 457 nM
- apparent KD of MS2 coat protein (input ligand: none): 114 nM

Sequence: AAGUACCGGUGAGGAUAUUUAUAAUAGAGCUUUAUGAUAUACAUGAGGAUCACCCAUGUUACUUUAAAGAAGGCAUCGGAUUAA [Mat - Exclusion NG 2 - Mod of JL - D92] (Eterna round: R96, puzzle: Exclusion NG 2)
- apparent KD of MS2 coat protein (input ligand: FMN 200 uM): 19.2 nM
- apparent KD of MS2 coat protein [1]: 11.1 nM
- apparent KD of MS2 coat protein (input ligand: none): 18.1 nM

Sequence: AAGUACCGUCACGAUAGUGAUGGUACAACUAGCAUGUAAACAUGAGGAUCACCCAUGUCCUCAAUUGCUCGUCUUAU [Sensor 3 - 69] (puzzle: Sensor v3, turn-off variant 2)
- apparent KD of MS2 coat protein [2]: 740 nM
- apparent KD of MS2 coat protein [3]: 829 nM
- apparent KD of MS2 coat protein [4]: 814 nM

Sequence: AAGUAGACAGUGAGGAUAUAGGUGGAAUGACCCAUUUAGAAGGUACAUGAGGAUCACCCAUGUGGGUAAUGUCG [Brourd's EX4 #27] (Eterna round: R97, puzzle: Brourd's mod of Exclusion 4)
- apparent KD of MS2 coat protein (input ligand: FMN 200 uM): 146 nM
- apparent KD of MS2 coat protein (input ligand: none): 149 nM

Sequence: AAGUAGUCUGUGAGGAUAUUGGUGGAAUGACACAUUAAGAAGGUACAUGAGGAUCACCCAUGUGGGUAAAGACG [Brourd's EX4 #24] (Eterna round: R97, puzzle: Brourd's mod of Exclusion 4)
- apparent KD of MS2 coat protein (input ligand: FMN 200 uM): 115 nM
- apparent KD of MS2 coat protein (input ligand: none): 109 nM

Sequence: AAGUAGUGUGUGAGGAUAUUGGUGGAAUGACACAUUAAGAAGGUACAUGAGGAUCACCCAUGUGGGUAAACACG [Brourd's EX4 #23] (Eterna round: R97, puzzle: Brourd's mod of Exclusion 4)
- apparent KD of MS2 coat protein (input ligand: FMN 200 uM): 137 nM
- apparent KD of MS2 coat protein (input ligand: none): 146 nM

Sequence: AAGUAUAGAGGAUAUAGUGAGUACUACAUGAGGAUCACCCAUGUUCUUCAAAGCGUAUUUCUAGAAGGCUAAUGAA [EX-5 Malc#14] (puzzle: Exclusion 5)
- apparent KD of MS2 coat protein [3]: 43.3 nM

Sequence: AAGUAUAGAGGAUAUAGUGAGUACUACAUGAGGAUCACCCAUGUUCUUCGAAACGUAUUUCUAGAAGGCUGAUAAA [EX-5 Malc#22] (puzzle: Exclusion 5)
- apparent KD of MS2 coat protein [2]: 35.3 nM
- apparent KD of MS2 coat protein [3]: 28.2 nM
- apparent KD of MS2 coat protein [4]: 29.2 nM

Sequence: AAGUCCGAGCGAGGAUAUUCACCUCAGUCAGCUGAAGAAGGCGCUAAGCGGUGAUUAUUUUGUACAUGAGGAUCACCCAUGUCA [Eternabot solution 49] (Eterna round: R96, puzzle: Exclusion NG 1)
- apparent KD of MS2 coat protein (input ligand: FMN 200 uM): 20.7 nM
- apparent KD of MS2 coat protein [1]: 21.2 nM
- apparent KD of MS2 coat protein (input ligand: none): 22.6 nM

Sequence: AAGUCGAGCGUGAGGAUAUUGACCGGACGACCCAUCGAGAAGGCACAUGAGGAUCACCCAUGUGAUUCAGCUCA [Brourd's EX4 #52] (Eterna round: R97, puzzle: Brourd's mod of Exclusion 4)
- apparent KD of MS2 coat protein (input ligand: FMN 200 uM): 23.2 nM
- apparent KD of MS2 coat protein (input ligand: none): 15.5 nM

Sequence: AAGUGUCCUAAGGAUAUCGAAGCUAUCGGCUGCCGAGAAGGUAGGACAUGAGGAUCACCCAUGUACCGUGAGCC [Reedor] (puzzle: Exclusion 6)
- apparent KD of MS2 coat protein [3]: 64.6 nM

— the supplement of paper PMC9170038
